In US20240239881A1 (Innovent, published 2024):

T1: Human Ang1 (human, UniProt Q15389 20-498, limits assumed)
T1 construct: also called hAng1
T1 sequence (looked up): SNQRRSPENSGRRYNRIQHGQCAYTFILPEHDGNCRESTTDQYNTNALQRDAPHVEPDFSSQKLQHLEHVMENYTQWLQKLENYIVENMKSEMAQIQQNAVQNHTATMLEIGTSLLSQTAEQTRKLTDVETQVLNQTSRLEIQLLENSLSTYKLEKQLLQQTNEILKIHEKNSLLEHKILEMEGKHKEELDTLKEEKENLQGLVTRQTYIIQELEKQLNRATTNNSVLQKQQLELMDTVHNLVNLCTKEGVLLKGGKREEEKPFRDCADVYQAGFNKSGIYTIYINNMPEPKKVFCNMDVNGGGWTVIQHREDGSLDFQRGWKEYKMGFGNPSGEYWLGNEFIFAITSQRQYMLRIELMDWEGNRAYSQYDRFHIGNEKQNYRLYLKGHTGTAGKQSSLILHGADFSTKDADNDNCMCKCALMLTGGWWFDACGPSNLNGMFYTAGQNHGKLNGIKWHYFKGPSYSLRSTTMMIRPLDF

T2: human Ang2 (human, UniProt O15123 19-496, limits assumed)
T2 construct: also called hAng2; h Ang2
T2 sequence: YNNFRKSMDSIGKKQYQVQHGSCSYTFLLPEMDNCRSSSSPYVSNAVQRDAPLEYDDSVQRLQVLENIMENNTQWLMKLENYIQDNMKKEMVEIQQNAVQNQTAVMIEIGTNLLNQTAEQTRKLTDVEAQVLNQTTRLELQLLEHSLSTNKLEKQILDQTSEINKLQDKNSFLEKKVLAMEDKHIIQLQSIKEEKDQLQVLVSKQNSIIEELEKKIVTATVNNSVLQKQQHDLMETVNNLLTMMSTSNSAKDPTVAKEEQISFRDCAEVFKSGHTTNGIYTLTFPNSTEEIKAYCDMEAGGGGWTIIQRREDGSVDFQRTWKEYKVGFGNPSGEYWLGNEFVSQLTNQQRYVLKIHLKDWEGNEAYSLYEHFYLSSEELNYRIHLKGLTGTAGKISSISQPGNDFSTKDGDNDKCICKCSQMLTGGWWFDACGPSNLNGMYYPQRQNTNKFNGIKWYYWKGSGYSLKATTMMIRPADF

T3: recombinant biotinylated hAngiopoietin-2 protein (R&D, Cat. No.: BT623B/CF) (human, UniProt O15123 19-496, limits assumed, biotinylated (sites not given))
T3 construct: Bought protein; also called Biotin Ang2; human biotin Ang2 protein
T3 sequence: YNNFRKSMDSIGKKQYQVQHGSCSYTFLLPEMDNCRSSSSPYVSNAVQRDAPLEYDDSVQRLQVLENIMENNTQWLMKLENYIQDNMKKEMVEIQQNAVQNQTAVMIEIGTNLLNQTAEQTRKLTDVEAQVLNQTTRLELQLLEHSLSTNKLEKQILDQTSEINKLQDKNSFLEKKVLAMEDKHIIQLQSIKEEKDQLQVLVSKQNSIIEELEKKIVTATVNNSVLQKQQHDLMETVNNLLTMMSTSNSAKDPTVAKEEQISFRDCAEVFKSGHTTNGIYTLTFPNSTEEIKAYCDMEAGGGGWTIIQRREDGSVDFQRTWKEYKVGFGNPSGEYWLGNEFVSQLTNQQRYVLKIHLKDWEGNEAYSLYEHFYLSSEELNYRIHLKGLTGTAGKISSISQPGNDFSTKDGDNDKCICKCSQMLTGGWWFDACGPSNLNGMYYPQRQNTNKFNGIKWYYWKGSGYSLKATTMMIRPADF


Columns and labels:
Human Ang1 = biological target: T1, Human Ang1; assay: ForteBio BLI, antibody on AHQ sensor
Description: (§1) The equilibrium dissociation constants (KD) of the above exemplary antibodies of the present invention binding to human Ang2 (h Ang2), cynomolgus monkey Ang2 (cAng2), murine Ang2 (mAng2), and human Ang1 (hAng1) were determined using the biological optical interferometry (ForteBio) assay.
(§2) The ForteBio affinity assay was performed according to the existing method (Estep, P et al., High throughput solution-based measurement of antibody-antigen affinity and epitope binning. MAbs, 2013.5 (2): p. 270-8). Briefly, the sensor was equilibrated in the assay buffer off-line for 30 min, followed by on-line detection for 60 s to establish the baseline. Then the purified antibodies obtained as described above were loaded on-line onto an AHQ sensor (ForteBio) for ForteBio affinity assay. The sensors with loaded antibodies were exposed to 100 nM of hAng2, cAng2, mAng2, and hAng1 antigens for 5 min, and then were transferred into the assay buffer for dissociation for 5 min to determine the dissociation rate. Kinetic analysis was performed using a 1:1 binding model.

human Ang2 = biological target: T2, human Ang2; assay: ForteBio BLI, antibody on AHQ sensor, 100 nM antigen, 1:1 model
Description: as §1, §2

[1] = biological target: T3, recombinant biotinylated …; assay: blocking ELISA: antibody titrated against biotinylated hAng2 (300 ng/ml final); blocked binding to coated hTie2 protein; Avidin-HRP detection
Description: The abilities of 81H10, 86E9, 107H7, hz81H10.4, Amhz81H10.4.30, Amhz81H10.4.49, and the control antibodies Nesvacumab and faricimab to block the binding of human Ang2 to hTie2 were determined by ELISA. Faricimab is a bispecific antibody drug undergoing a clinical trial and developed by Roche, which targets both angiopoietin-2 (Ang-2) and VEGF-A.
Then the plate was blocked using 5% BSA for 1 h. The biotinylated antigen, recombinant biotinylated hAngiopoietin-2 protein (R&D, Cat. No.: BT623B/CF), was diluted to 600 ng/ml, and was added into the microtiter plate at 50 μl/well. The antibodies (81H10, 86E9, 107H7, hz81H10.4, Amhz81H10.4.30 and Amhz81H10.4.49) prepared as described above were gradiently diluted with a total of 8 or 12 dilution points starting from the highest concentration, and then added to the microtiter plate at 50 μl/well, and incubated in PBS on ice for 30 min. Then, 50 ul of antigen solution was added to the microtiter plate, in which the final antigen concentration was 300 ng/ml. The plate containing the antigen-antibody mixture was incubated for 90 min. After three washes with PBS, the supernatant was discarded, and Avidin-HRP (Invitrogen) diluted at 1:10000 was added at 100 μl/well, then incubated at room temperature for 30 min. PBS was used to wash the plate six times. Then TMB chromogen solution (solarbio) was added at 100 ul/well to allow for chromogenic reaction for 1 min, then the reaction was terminated with the addition of stop solution (solarbio) at 100 ul/well.

[2] = biological target: T3, recombinant biotinylated …; assay: ELISA: biotin Ang2 (R&D BT623B/CF) captured on coated streptavidin (SA), antibody titrated, anti-human IgG-HRP, OD450-OD620, GraphPad fit
Description: The binding of 81H10 and hz81H10.4 of the present invention to human biotin Ang2 protein was measured in an SA-biotin Ang2-based ELISA assay.
SA protein (Thermo Fisher) was diluted to 1 μg/ml with PBS, and was coated onto a microtiter plate at 100 μl/well at 4° C. overnight. After three washes with PBST, the plate was blocked with 5% BSA for 1 h. Biotin Ang2 (R&D, Cat. No. BT623B/CF) was incubated at a concentration of 0.5 μg/ml for 1 h. Gradient diluted antibodies (maximum concentration 20 nM, 1:3 serial dilution) were added to the microtiter plate and incubated for 2 h, and the plate was washed three times with PBST. […] Then the plate was washed for 6 times with PBST. Chromogenic reaction was performed with 100 ul TMB and terminated with 100 ul 2N sulfuric acid. The reading of OD₄₅₀-OD₆₂₀ was taken by microplate reader. The concentration-dependent curve was fitted with GraphPad based on the OD₄₅₀-OD₆₂₀.

Row | Binder | binding result (Human Ang1) | Kd (human Ang2) | IC50 [1] | EC50 [2]
1 | chimeric antibody 86E9 (antibody, human IgG1, kappa) heavy: not shown light: DIVMTQSHKFLSTSVGARVSITCKASQDVGTDVAWYQQKPGQSPKLLIYWASTRHTGVPDRFTGSGSGTDFTLTISNVQSEDLSDYFCQQYSSYPLTFGGGTKLEIKRTVAAPSVFIFPPSDEQLKSGTASVVCLLNNFYPREAKVQWKVDNALQSGNSQESVTEQDSKDSTYSLSSTLTLSKADYEKHKVYACEVTHQGLSSPVTKSFNRGEC | no binding (tested: 100 nM) | 7.63 nM | 5.29 nM | –
2 | chimeric antibody 107H7 (antibody, human IgG1, kappa) heavy: not shown light: DIVMTQTPKFLSTSVGARVSITCKASQDVGTDVAWYQQKPGQSPKLLIYWASTRHTGVPDRFTGSGSGTDFTLTISNVQSEDLSDYFCQQYSSYPLTFGGGTKLEIKRTVAAPSVFIFPPSDEQLKSGTASVVCLLNNFYPREAKVQWKVDNALQSGNSQESVTEQDSKDSTYSLSSTLTLSKADYEKHKVYACEVTHQGLSSPVTKSFNRGEC | no binding (tested: 100 nM) | 7.75 nM | 9.15 nM | –

Other lines, results leading:

Row | binding result (Human Ang1) | Kd (human Ang2) | IC50 [1] | EC50 [2] | Binder
3 | no binding (tested: 100 nM) | 6.92 nM | 1.32 nM | 0.0142 nM | chimeric antibody 81H10 (antibody, human IgG1, kappa, V domains shown) VH: EVKLEESGGGLVQPGGSMKLSCVASGFTFSNYWMNWVRQSPEKGLEWVAEIRLKSNNYATHYAESVKGRFTISRDVSKSSVYLQMNNLRTEDTGIYYCTDTAPFAYWGQGTLVTVSA VL: DIVMTQSHKFMSTSVGDRVSITCKASQDVGTDVAWYQQKPGQSPKLLIYWASTRHTGVPDRFTGSGSGTDFTLTISNVQSEDLSDYFCQQYSSYPLTFGGGTKLEIKR
4 | no binding (tested: 100 nM) | 23.2 nM | 4.91 nM | – | affinity matured antibody Amhz81H10.4.30 (antibody, human IgG1, kappa, V domains shown) VH: EVQLVESGGGLVKPGGSLRLSCAASGFTFRAAWMNWVRQAPGKGLEWVAEIRLKSNHYETHYAESVKGRFTISRDVSKNTVYLQMNSLKTEDTAVYYCTDTQPGAYWGQGTLVTVSS VL: DIQMTQSPSSLSASVGDRVTITCKASQYVFTDVAWYQQKPGKAPKLLIYWASTRWTGVPSRFSGSGSGTDFTLTISSLQPEDFATYYCQQTSSYPLTFGGGTKVEIKR
